Reference: patent US20180280423A1 (NATIONAL YANG MING UNIVERSITY, published 2018)

Target: T1, epidermal growth factor receptor (EGFR) (human, UniProt P00533 25-1210)
T1 construct: whole, on cells; Endogenous EGFR in human HNSCC cells, or wild-type pHA-EGFR where transfected; also called ErbB1; total EGFR
Test: interaction of transfected LTβ with EGFR (method not named; immunoprecipitation in Methods)
Protocol: For immunoprecipitation, the lysates were mixed with an equal amount of Co-IP buffer. The primary antibody or IgG was added to the lysates, and the reactions were incubated and then blocked with protein A beads overnight. The beads were collected and washed gently prior to immunoblotting. ImageJ software was used for densitometric measurements of the western blots.

B1: Ectopic LTβ (ligand)
chain: MGALGLEGRGGRLQGRGSLLLAVAGATSLVTLLLAVPITVLAVLALVPQDQGGLVTETADPGAQAQQGLGFQKLPEEEPETDLSPGLPAAHLIGAPLKGQGLGWETTKEQAFLTSGTQFSDAEGLALPQDGLYYLYCLVGYRGRAPPGGGDPQGRSVTLRSSLYRAGGAYGPGTPELLLEGAETVTPVLDPARRQGYGPLWYTSVGFGGLVQLRRGERVYVNISHPDMVDFARGKTFFGAVMVG
notes: also called pFLAG-LTB product; transfected LTβ; not shown: FLAG tag from the pFLAG-CMV2 vector
binding result: binds
